# Measurements taken from paper PMC13152641.
# B1: ETV5 30-mer (MST) (dsDNA)
# DNA 1: GGCGTTTTTTATGAATGAAAAACGTCCTCC
# DNA 2: GGAGGACGTTTTTCATTCATAAAAAACGCC
# B2: ETV5 18-mer (crystal) (dsDNA)
# DNA 1: GGTTATGAATGAAAAACC
# DNA 2: GGTTTTTCATTCATAACC
# B3: random-site 30-mer (EMSA) (dsDNA)
# DNA 1: GGCGTTTTTTAGTCGCTGCAAACGTCCTCC
# DNA 2: GGAGGACGTTTGCAGCGACTAAAAAACGCC
# B4: ETV5 30-mer (EMSA) (dsDNA)
# DNA 1: B1 DNA 1
# DNA 2: B1 DNA 2
# Legend:
# CICmin18 R1515H = CICmin18 R1515H (human, UniProt Q96RK0-2 188-280+=F+1457-1527, R1515H;internal_change); test: MST
# CICmin18 M1519D = CICmin18 M1519D (human, UniProt Q96RK0-2 188-280+=F+1457-1527, M1519D;internal_change); test: MST
# CICmin18 R1512H = CICmin18 R1512H (human, UniProt Q96RK0-2 188-280+=F+1457-1527, R1512H;internal_change); test: MST
# CICmin18 WT [1] = biological target: T1, CICmin18 WT (human, UniProt Q96RK0-2;Q96RK0-2); test: MST
# CICmin31 M1519D = CICmin31 M1519D (human, UniProt Q96RK0-2 188-294+1457-1527, M1519D;internal_change); test: MST
# CICmin31 R215W = CICmin31 R215W (human, UniProt Q96RK0-2 188-294+1457-1527, R215W;internal_change); test: MST
# CICmin31 R201W = CICmin31 R201W (human, UniProt Q96RK0-2;Q96RK0-2, R201W); test: MST
# CICmin31 WT = CICmin31 WT (human, UniProt Q96RK0-2 188-294+1457-1527, internal_change); test: MST
# CICmin31 R1515H = CICmin31 R1515H (human, UniProt Q96RK0-2 188-294+1457-1527, R1515H;internal_change); test: MST
# CICmin18 WT [2] = biological target: T1, CICmin18 WT; test: X-ray crystallography 2.95 A
# CICmin18 WT [3] = biological target: T1, CICmin18 WT; test: EMSA
# CICmin31 WT (IVT) = CICmin31 WT (IVT) (human, UniProt Q96RK0-2 188-294+1457-1527, internal_change); test: EMSA
# CICmin31 R201W (IVT) = CICmin31 R201W (IVT) (human, UniProt Q96RK0-2 188-294+1457-1527, R201W;internal_change); test: EMSA
binder,measurement,setting,value
B1,apparent K (half saturation),CICmin18 R1515H,16.7 nM
same,apparent K (half saturation),CICmin18 M1519D,50.3 nM
same,apparent K (half saturation),CICmin18 R1512H,14.6 nM
same,apparent K (half saturation),CICmin18 WT [1],15.5 nM
same,apparent K (half saturation),CICmin31 M1519D,32.2 nM
same,apparent K (half saturation),CICmin31 R215W,151 nM
same,apparent K (half saturation),CICmin31 R201W,171 nM
same,apparent K (half saturation),CICmin31 WT,226 nM
same,apparent K (half saturation),CICmin31 R1515H,1430 nM
B2,binding result,CICmin18 WT [2],binds
B3,binding result,CICmin18 WT [3],no binding
same,binding result,CICmin31 WT (IVT),no binding
B4,binding result,CICmin31 R201W (IVT),binds
